B1: human Toll-like receptor 8, wild type (receptor, UniProt Q9NR97-1 27-1041, looked up)
chain: EENFSRSYPCDEKKQNDSVIAECSNRRLQEVPQTVGKYVTELDLSDNFITHITNESFQGLQNLTKINLNHNPNVQHQNGNPGIQSNGLNITDGAFLNLKNLRELLLEDNQLPQIPSGLPESLTELSLIQNNIYNITKEGISRLINLKNLYLAWNCYFNKVCEKTNIEDGVFETLTNLELLSLSFNSLSHVPPKLPSSLRKLFLSNTQIKYISEEDFKGLINLTLLDLSGNCPRCFNAPFPCVPCDGGASINIDRFAFQNLTQLRYLNLSSTSLRKINAAWFKNMPHLKVLDLEFNYLVGEIASGAFLTMLPRLEILDLSFNYIKGSYPQHINISRNFSKLLSLRALHLRGYVFQELREDDFQPLMQLPNLSTINLGINFIKQIDFKLFQNFSNLEIIYLSENRISPLVKDTRQSYANSSSFQRHIRKRRSTDFEFDPHSNFYHFTRPLIKPQCAAYGKALDLSLNSIFFIGPNQFENLPDIACLNLSANSNAQVLSGTEFSAIPHVKYLDLTNNRLDFDNASALTELSDLEVLDLSYNSHYFRIAGVTHHLEFIQNFTNLKVLNLSHNNIYTLTDKYNLESKSLVELVFSGNRLDILWNDDDNRYISIFKGLKNLTRLDLSLNRLKHIPNEAFLNLPASLTELHINDNMLKFFNWTLLQQFPRLELLDLRGNKLLFLTDSLSDFTSSLRTLLLSHNRISHLPSGFLSEVSSLKHLDLSSNLLKTINKSALETKTTTKLSMLELHGNPFECTCDIGDFRRWMDEHLNVKIPRLVDVICASPGDQRGKSIVSLELTTCVSDVTAVILFFFTFFITTMVMLAALAHHLFYWDVWFIYNVCLAKVKGYRSLSTSQTFYDAYISYDTKDASVTDWVINELRYHLEESRDKNVLLCLEERDWDPGLAIIDNLMQSINQSKKTVFVLTKKYAKSWNFKTAFYLALQRLMDENMDVIIFILLEPVLQHSQYLRLRQRICKSSILQWPDNPKAEGLFWQTLRNVVLTENDSRYNNMYVDSIKQY

Assays:
[1] = molecular target: human Toll-like receptor 8 with the RQSYA motif deleted (human) (UniProt Q9NR97); experiment: immunoblot of cell lysate
[2] = molecular target: the molecule itself; experiment: immunoblot of cell lysate

Molecule	stoichiometry N [1]	stoichiometry N [2]
human Toll-like receptor 8 with the RQSYA motif deleted (from UniProt Q9NR97-1 27-1041)	2	
B1		2
